The target in assay [1] is Photosystem I (PSI) of Gloeocapsa sp. PCC 7428 (Gloeocapsa sp. PCC 7428 (endogenous)). In words: native gel or EMSA.
Assay [2] has the same target. In words: native gel or EMSA. The source holds these as a separate data set. (In general: A gel shift assay detects complexes by their altered migration in electrophoresis.)
Assay [3] deals with Photosystem I (PSI) of Chroococcidiopsis thermalis PCC 7203 (Chroococcidiopsis thermalis PCC 7203 (endogenous)). In words: native gel or EMSA.
The target in assay [4] is Photosystem I (PSI) of Microcystis sp. PCC 7806 (Microcystis sp. PCC 7806 (endogenous)). Description: native gel or EMSA.
Assay [5] deals with Photosystem I (PSI) of Synechocystis sp. PCC 6803, wild type (Synechocystis sp. PCC 6803 (endogenous)) (UniProt P37277). Description: native gel or EMSA.
The target of assay [6] is Photosystem I (PSI) of Nostoc sp. PCC 7120 (Nostoc sp. PCC 7120 (endogenous)). In words: native gel or EMSA.
In assay [7] the target is Photosystem I (PSI) of Thermosynechococcus elongatus BP-1 (Thermosynechococcus elongatus BP-1 (endogenous)). Description: native gel or EMSA.
The target in assay [8] is Photosystem I (PSI) of Pseudanabaena sp. B SP48 (Pseudanabaena sp. B SP48 (endogenous)). Description: native gel or EMSA.
The target in assay [9] is Photosystem I (PSI) of Chroococcidiopsis sp. PCC 6712 (Chroococcidiopsis sp. PCC 6712 (endogenous)). In words: native gel or EMSA.
The target is the same in assay [10]. In words: transmission electron microscopy with single particle analysis.
In assay [11] the target is Photosystem I (PSI) of Nodularia PCC 73104 (Nodularia PCC 73104 (endogenous)). Description: native gel or EMSA.
Assay [12] deals with Photosystem I (PSI) of Nostoc sp. PCC 9335 (Nostoc sp. PCC 9335 (endogenous)). Description: native gel or EMSA.
The target in assay [13] is Photosystem I (PSI) of Leptolyngbya sp. PCC 7124 (Leptolyngbya sp. PCC 7124 (endogenous)). Description: native gel or EMSA.
Assay [14] concerns the target Photosystem I (PSI) of Planktothrix paucivesiculata PCC 8926 (Planktothrix paucivesiculata PCC 8926 (endogenous)). In words: native gel or EMSA.
Assay [15] concerns the target Photosystem I (PSI) of Synechocystis sp. PCC 7509 (Synechocystis sp. PCC 7509 (endogenous)). Description: native gel or EMSA.
Assay [16] deals with Photosystem I (PSI) of Chroococcidiopsis sp. TS-821 (Chroococcidiopsis sp. TS-821 (endogenous)). Description: native gel or EMSA.
Assay [17] has the same target. In words: native gel or EMSA. This is another data set of the same source.
The target is the same in assay [18]. Description: sucrose density gradient ultracentrifugation.
Assay [19] deals with Photosystem I (PSI) of Fischerella muscicola PCC 7414 (Fischerella muscicola PCC 7414 (endogenous)). In words: native gel or EMSA.
The target is the same in assay [20]. Description: native gel or EMSA. This is another data set of the same source.
The target is the same in assay [21]. In words: transmission electron microscopy with single particle analysis.
Assay [22] concerns the target Photosystem I (PSI) of Chroococcidiopsis sp. PCC 7434 (Chroococcidiopsis sp. PCC 7434 (endogenous)). In words: native gel or EMSA.

Results on 16 substances are retold here after publication doi:10.1101/544353.

Usually stoichiometry N stands for a count of units in the complex or per binding partner.

“And” between values parts separate entries of the source, which are not always exact repeats. Equal entries are not always repeated. Where two headings read alike, the source gives them in different places.

As to “Photosystem I (PSI) of Gloeocapsa sp. PCC 7428 (complex)”, the stoichiometry N in assay [1] was 3; in [2], 4 and 2. The substance “Photosystem I (PSI) of Chroococcidiopsis thermalis PCC 7203 (complex)” gave a stoichiometry N in assay [3] of 2. For “Photosystem I (PSI) of Microcystis sp. PCC 7806 (complex)”, the stoichiometry N in [4] was 2 and 3.

For the substance “Photosystem I (PSI) of Synechocystis sp. PCC 6803, wild type (from UniProt P37277 1-157) (complex)”, in assay [5], the stoichiometry N stood at 3. Take “Photosystem I (PSI) of Nostoc sp. PCC 7120 (complex)”: the stoichiometry N in assay [6] stood at 4. For the substance “Photosystem I (PSI) of Thermosynechococcus elongatus BP-1 (complex)”, the stoichiometry N in assay [7] was 3. Take “Photosystem I (PSI) of Pseudanabaena sp. B SP48 (complex)”: the stoichiometry N in assay [8] amounted to 3. As to “Photosystem I (PSI) of Chroococcidiopsis sp. PCC 6712 (complex)”, the stoichiometry N in assay [9] and in assay [10] was 3 each time. “Photosystem I (PSI) of Nodularia PCC 73104 (complex)”: the stoichiometry N in [11] was found to be 4. As to “Photosystem I (PSI) of Nostoc sp. PCC 9335 (complex)”, the stoichiometry N in [12] is 3 and 2. For the substance “Photosystem I (PSI) of Leptolyngbya sp. PCC 7124 (complex)”, the stoichiometry N in assay [13] is 2. In the case of “Photosystem I (PSI) of Planktothrix paucivesiculata PCC 8926 (complex)”, the stoichiometry N in assay [14] came to 3. As for “Photosystem I (PSI) of Synechocystis sp. PCC 7509 (complex)”, in [15], the stoichiometry N was 4 and 2. “Photosystem I (PSI) of Chroococcidiopsis sp. TS-821 (complex)”: the stoichiometry N in [16] is 4 and 2; in assay [17] it was 3; in [18] it was 2. In the case of “Photosystem I (PSI) of Fischerella muscicola PCC 7414 (complex)”, the results for the stoichiometry N in [19], in [20] and in assay [21] were 3, 4 and 4, respectively. In assay [22], “Photosystem I (PSI) of Chroococcidiopsis sp. PCC 7434 (complex)” yielded a stoichiometry N of 2.
